According to patent CN102167743A (BAIMAIBO PHARMACEUTICAL CO LTD, dated 2011):

Target: T1, EGFR (UniProt P00533 25-645, limits assumed)
T1 construct: also called 表皮生长因子受体
Test: not described (summary of experimental results; compared with C225, 2F8 and 3C6)

binding result: binds
B1: 全人源抗EGFR抗体15H8 (antibody, human IgG1, kappa, V domains shown)
VH: EVQLVESGGGLVQPGGSLRLSCAASGFTFSSYAMHWVRQAPGKGLEYVSAISSNGGSTYYANSVKGRFTISRDNSKNTLYLQMGSLRAEDMAVYYCAREGYSSSWYHNWFDSWGQGTLVTVSS
VL: DIVMTQTPLSLPVTPGEPASISCRSSQSLLDSDDGNTYLDWYLQKPGQSPQLLIYTLSYRASGVPDRFSGSGSGTDFTLKISRVEAEDVGVYYCMQRIEFPSLYTFGQGTKLEIKR
notes: Whole human antibody expressed in CHO-K1 and purified on Protein A. The expression genes carry a signal peptide, printed only as nucleotides; also called 15H8抗体; 全人源抗体15H8
